We go through 1 substance from publication PMC3459862.

This assay concerns the target GST-WC-1 mini, LXXLL motif mutant (LAQLL changed to LAQAA) (Neurospora crassa) (UniProt Q01371). As to the kind of experiment: pull-down.
Sequence of UniProt Q01371 (Q01371 838-1000, change not shown): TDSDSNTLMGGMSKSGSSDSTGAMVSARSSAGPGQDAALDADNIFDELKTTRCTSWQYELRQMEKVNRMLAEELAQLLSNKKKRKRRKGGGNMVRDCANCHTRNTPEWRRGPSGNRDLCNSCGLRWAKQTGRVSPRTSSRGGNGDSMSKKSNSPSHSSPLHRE

“S. cerevisiae Gcn5p, 35S-radiolabeled (from UniProt Q03330 1-439) (enzyme)” displayed a percent decrease of retained Gcn5p against WC-1 mini of 45%.
